Assay results published in article PMC4937785 (Plant and Cell Physiology, 2016).
Several values for one entry are separate records, joined by “and”; a condition that tells them apart may be missing. Identical values can stand only once.

Experiments:
native gel or EMSA = biological target: the molecule itself; assay: native gel or EMSA
SEC = biological target: the molecule itself; assay: SEC

Protein | stoichiometry N (native gel or EMSA) | stoichiometry N (SEC)
Flavodiiron protein Flv3 (sll0550) in Synechocystis sp. PCC 6803 (natural protein, UniProt Q55393 1-573, looked up) MFTTPLPPQKRLSTQTEAIAKNITAIRSLDWDRDRFDIEFGLQNGTTYNSYLIQADKVALVDSSHEKFRQLYLDLLQGLIDPQRIDYLIVSHTEPDHSGLVKDILQLNPRITVVATKVALQFLDNFVHQPFERIQVKSGDRLDLGQGHDLEFVSAPNLHWPDTMLTYDPATEILFTCDVFGMHYCSDAVFDIDLGKIAPDYQFYYDCLMGPNARSVLAAMKRMDNLGTISTVANGHGPLLRHNVGELLHRYRHWSESQSKAEKTVVVFYVADYGYGDRLSQAIAKGITKTGVGVDMVDLSSADPQEIQELVGHASGVVLGMPPLQANADLSTNFGAVLAAMQPKQVFGLYESYGGDDEPIDPLRTKFLDLGLREAFKVIKVKDTPSESTYQLCDESGTDLGQNLIQAAKIKQLKSLDSDLEKAIGRISGGLYIITAQKGEVKGAMLASWVSQASFNPPGFTVAVAKDRAIESLMQVGDRFVLNILEEGNYQILMKHFLKRFPPGADRFAGVKTQTASNGSPILTDALAYLECEVASRMECSDHWIVYSQVTNGRVAKAEGLTAVHHRKVGNYY | 2 | 
His-tagged Flv3 expressed in Escherichia coli (natural protein, Synechocystis sp. PCC 6803, UniProt Q55393 1-573, looked up) MFTTPLPPQKRLSTQTEAIAKNITAIRSLDWDRDRFDIEFGLQNGTTYNSYLIQADKVALVDSSHEKFRQLYLDLLQGLIDPQRIDYLIVSHTEPDHSGLVKDILQLNPRITVVATKVALQFLDNFVHQPFERIQVKSGDRLDLGQGHDLEFVSAPNLHWPDTMLTYDPATEILFTCDVFGMHYCSDAVFDIDLGKIAPDYQFYYDCLMGPNARSVLAAMKRMDNLGTISTVANGHGPLLRHNVGELLHRYRHWSESQSKAEKTVVVFYVADYGYGDRLSQAIAKGITKTGVGVDMVDLSSADPQEIQELVGHASGVVLGMPPLQANADLSTNFGAVLAAMQPKQVFGLYESYGGDDEPIDPLRTKFLDLGLREAFKVIKVKDTPSESTYQLCDESGTDLGQNLIQAAKIKQLKSLDSDLEKAIGRISGGLYIITAQKGEVKGAMLASWVSQASFNPPGFTVAVAKDRAIESLMQVGDRFVLNILEEGNYQILMKHFLKRFPPGADRFAGVKTQTASNGSPILTDALAYLECEVASRMECSDHWIVYSQVTNGRVAKAEGLTAVHHRKVGNYY |  | 2 and 4
